Reference: the supplement of paper PMC5998384

Key:
[1] = test system: HeLa Kyoto; assay: solubility in G1/S (NP-40 vs SDS abundance) (log2 ratio); higher = more soluble; conditions: cell cycle stage: G1/S
[2] = test system: HeLa Kyoto; assay: solubility change mitosis vs G1/S (difference of NP-40 vs SDS log2 ratios) (log2 ratio difference); higher = more soluble in mitosis
[3] = test system: HeLa Kyoto; assay: thermal stability score vs G1/S (z-score of summed log2 fold changes over temperatures); higher = more thermally stable than in G1/S
[4] = test system: HeLa Kyoto; assay: melting temperature (median over replicates), in situ; higher = more thermally stable
[5] = cell cycle stage: early G1 (4.5 h after nocodazole release)
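Wherever melting temperature (median over replicates), in situ is given: HeLa Kyoto cells synchronized by double thymidine or nocodazole block, proteins quantified by TMT10plex mass spectrometry, three independent biological replicates.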
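Wherever solubility change mitosis vs G1/S (difference of NP-40 vs SDS log2 ratios) is given: synchronized HeLa Kyoto cells (double thymidine block for G1/S, nocodazole release for mitosis), protein amounts in NP-40 versus SDS lysates quantified by mass spectrometry, three biological replicates.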
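Wherever solubility in G1/S (NP-40 vs SDS abundance) is given: HeLa Kyoto cells arrested at G1/S by double thymidine block, proteins quantified by TMT10plex mass spectrometry in mild NP-40 versus SDS extracts, three biological replicates.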
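Wherever thermal stability score vs G1/S (z-score of summed log2 fold changes over temperatures) is given: synchronized HeLa Kyoto cells, proteins quantified by TMT10plex mass spectrometry, three biological replicates, mitosis taken 0.5 h after nocodazole release, G1/S directly after double thymidine block.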

| Sequence | solubility in G1/S (log2) [1] | solubility change mitosis (log2) [2] | thermal stability score [3, 5] | thermal stability score ([3]; cell cycle stage: mitosis) | melting temperature ([4]; cell cycle stage: G1/S) [°C] | melting temperature ([4]; cell cycle stage: mitosis) [°C] |
| --- | --- | --- | --- | --- | --- | --- |
| MKPGATGESDLAEVLPQHKFDSKSLEAYLNQHLSGFGAEREATLTIAQYRAGKSNPTFYLQKGFQTYVLRKKPPGSLLPKAHQIDREFKVQKALFSIGFPVPKPILYCSDTSVIGTEFYVMEHVQGRIFRDLTIPGLSPAERSAIYVATVETLAQLHSLNIQSLQLEGYGIGAGYCKRQVSTWTKQYQAAAHQDIPAMQQLSEWLMKNLPDNDNEENLIHGDFRLDNIVFHPKECRVIAVLDWELSTIGHPLSDLAHFSLFYFWPRTVPMINQGSYSENSGIPSMEELISIYCRCRGINSILPNWNFFLALSYFKMAGIAQGVYSRYLLGNNSSEDSFLFANIVQPLAETGLQLSKRTFSTVLPQIDTTGQLFVQTRKGQEVLIKVKHFMKQHILPAEKEVTEFYVQNENSVDKWGKPLVIDKLKEMAKVEGLWNLFLPAVSGLSHVDYALIAEETGKCFFAPDVFNCQAPDTGNMEVLHLYGSEEQKKQWLEPLLQGNITSCFCMTEPDVASSDATNIECSIQRDEDSYVINGKKWWSSGAGNPKCKIAIVLGRTQNTSLSRHKQHSMILVPMNTPGVKIIRPLSVFGYTDNFHGGHFEIHFNQVRVPATNLILGEGRGFEISQGRLGPGRIHHCMRTVGLAERALQIMCERATQRIAFKKKLYAHEVVAHWIAESRIAIEKIRLLTLKAAHSMDTLGSAGAKKEIAMIKVAAPRAVSKIVDWAIQVCGGAGVSQDYPLANMYAITRVLRLADGPDEVHLSAIATMELRDQAKRLTAKI [ACAD11] | -0.0959 | -0.0749 | 0.241 | -0.505 | 53.9 | 52.9 |
| MKPGFSPRGGGFGGRGGFGDRGGRGGRGGFGGGRGRGGGFRGRGRGGGGGGGGGGGGGRGGGGFHSGGNRGRGRGGKRGNQSGKNVMVEPHRHEGVFICRGKEDALVTKNLVPGESVYGEKRVSISEGDDKIEYRAWNPFRSKLAAAILGGVDQIHIKPGAKVLYLGAASGTTVSHVSDIVGPDGLVYAVEFSHRSGRDLINLAKKRTNIIPVIEDARHPHKYRMLIAMVDVIFADVAQPDQTRIVALNAHTFLRNGGHFVISIKANCIDSTASAEAVFASEVKKMQQENMKPQEQLTLEPYERDHAVVVGVYRPPPKVKN [FBL] | -1.97 | 1.49 | -1.06 | -3.39 | 52.9 | 51.5 |
| MKQDASRNAAYTVDCEDYVHVVEFNPFENGDSGNLIAYGGNNYVVIGTCTFQEEEADVEGIQYKTLRTFHHGVRVDGIAWSPETRLDSLPPVIKFCTSAADMKIRLFTSDLQDKNEYKVLEGHTDFINGLVFDPKEGQEIASVSDDHTCRIWNLEGVQTAHFVLHSPGMSVCWHPEETFKLMVAEKNGTIRFYDLLAQQAILSLESEQVPLMSAHWCLKNTFKVGAVAGNDWLIWDITRSSYPQNKRPVHMDRACLFRWSTISENLFATTGYPGKMASQFQIHHLGHPQPILMGSVAVGSGLSWHRTLPLCVIGGDHKLLFWVTEV [NUP37] | -0.294 | 0.135 | -3.41 | -4.8 | 53.3 | 51 |
| MKQLPVLEPGDKPRKATWYTLTVPGDSPCARVGHSCSYLPPVGNAKRGKVFIVGGANPNRSFSDVHTMDLGKHQWDLDTCKGLLPRYEHASFIPSCTPDRIWVFGGANQSGNRNCLQVLNPETRTWTTPEVTSPPPSPRTFHTSSAAIGNQLYVFGGGERGAQPVQDTKLHVFDANTLTWSQPETLGNPPSPRHGHVMVAAGTKLFIHGGLAGDRFYDDLHCIDISDMKWQKLNPTGAAPAGCAAHSAVAMGKHVYIFGGMTPAGALDTMYQYHTEEQHWTLLKFDTLLPPGRLDHSMCIIPWPVTCASEKEDSNSLTLNHEAEKEDSADKVMSHSGDSHEESQTATLLCLVFGGMNTEGEIYDDCIVTVVD [RABEPK] | 0.201 | -0.084 | -1.33 | -1.94 | 56.5 | 56 |
